Experimental findings from article PMC3518219 (The Journal of Cell Biology, 2012) are described below.

This assay concerns the target T1, GST-RadilPDZ (human, UniProt Q96JH8 870-1075).
T1 sequence (looked up): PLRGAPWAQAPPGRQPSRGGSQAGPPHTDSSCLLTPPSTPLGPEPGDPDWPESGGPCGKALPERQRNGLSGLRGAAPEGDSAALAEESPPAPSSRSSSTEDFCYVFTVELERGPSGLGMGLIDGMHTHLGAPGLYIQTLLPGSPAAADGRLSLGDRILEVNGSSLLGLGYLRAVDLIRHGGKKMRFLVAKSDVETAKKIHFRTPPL
Description: pull-down.

B1: Flag-KIF14-ctail-IQWV (domain or fragment, human, UniProt Q15058 1483-1648, looked up)
chain: VQEENFEYQDFKRMVNRAPEFLKLKHCLEKAIEIIISALKGCHSDINLLQTCVESIRNLASDFYSDFSVPSTSVGSYESRVTHIVHQELESLAKSLLFCFESEESPDLLKPWETYNQNTKEEHQQSKSSGIDGSKNKGVPKRVYELHGSSPAVSSEECTPSRIQWV
Turning to B1, the binding result is given as “binds”.
